Data set [1] deals with T1, LSH3-DBD S45-S190 (Arabidopsis thaliana, UniProt O82268 45-190).
T1 sequence: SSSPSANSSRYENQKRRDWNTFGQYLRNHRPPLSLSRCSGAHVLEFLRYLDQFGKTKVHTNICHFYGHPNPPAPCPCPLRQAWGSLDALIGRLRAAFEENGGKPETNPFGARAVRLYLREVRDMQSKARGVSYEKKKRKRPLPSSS
The data set is described as follows: crystal structure.

In data set [2] the target is T2, LSH1-DBD M1-L166 (Arabidopsis thaliana, UniProt Q6NNI3 1-166).
T2 sequence: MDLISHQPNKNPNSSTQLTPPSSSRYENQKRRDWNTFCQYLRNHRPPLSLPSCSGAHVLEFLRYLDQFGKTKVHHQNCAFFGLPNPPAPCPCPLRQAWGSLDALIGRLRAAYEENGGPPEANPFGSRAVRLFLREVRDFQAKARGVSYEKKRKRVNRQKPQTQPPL
The data set is described as follows: EMSA. On the technique in general: Mobility shift assays separate free from complexed probe on a gel.

The target in data set [3] is T1, LSH3-DBD S45-S190. Kind of data set: EMSA.

A value given as a limit tells only on which side of the number the result lay.

As a reminder, the Kd is the free concentration of one partner at which half of the binding sites on the other are occupied at equilibrium, for simple one-to-one binding.

B1: LSH perfect motif 17 bp (oPR799/oPR800) (dsDNA)
DNA 1: TAGTTTACTGTTGACGT
DNA 2: ACGTCAACAGTAAACTA
As for B1, the binding result in data set [1] is given as “binds”.

B2: WT ALOG motif probe (perfect motif) (dsDNA)
DNA 1: GCGTAGTTTACTGTTGACGTAG
DNA 2: CTACGTCAACAGTAAACTACG
On to B2, for which the Kd in data set [2] was below 50 nM; in data set [3] it was 28 nM.

Values taken from article PMC10927535.
